According to patent publication US20110190477A1 (G2 INFLAMMATION, published 2011):
No end group written: not given here. *: point of attachment. Biotin = O=C1N[C@H]2[C@H](CS[C@H]2CCCCC(=O)*)N1

Experiments:
Assay in all cases: peptide ELISA, biotin peptide on streptavidin plate
[1] = molecular target: T1, peptide 13 (12 mer from the 2nd extracellular loop of human C5aR) (human)
T1 construct: worked out from 22 12 mers offset by one over 173-205; also called peptide no; 13
T1 peptide: Biotin-SGSGKVLCGVDYSHDK
Description: (§1) A set of 22 overlapping peptides (12 mers), each offset by 1 residue from the next, spanning the second extracellular loop (3rd extracellular domain) of human C5aR was synthesised (Mimotopes, Melbourne). Each peptide was made with a biotin group and 4-amino acid linker (SGSG) at its N-terminus. One peptide synthesised, no. 23, was a 33 mer, representing the full length of the 2nd extracellular loop of hC5aR (residues 173-205 from SEQ ID NO:37), also had biotin-SGSG at the N-terminus.
(§2) The experiment was conducted by binding the peptides to a 384-well streptavidin-coated plate then incubating the antibodies with the peptides and detecting bound antibody with an anti-mouse IgG conjugated to horse radish peroxidase (HRP) as follows. Each peptide was dissolved in 200 μl of 60% DMSO to a concentration of 10 mg/ml. Peptides were further diluted 1:1000 to a working strength of 10 μg/ml with PBS/Tween 20/azide solution (0.1% w/v sodium azide in PBS/0.05% Tween 20).
(§3) A 384 well streptavidin-coated plate (Nunc) was blocked with 20 μl of blocking buffer (1% w/v BSA in PBS) per well. The plate was washed 4 times with PBS/Tween20 buffer (0.1% v/v Tween 20 in PBS). 20 μl of diluted peptide solution was transferred into a well and the plate incubated for 1 hour at room temperature. After washing the plate 4 times (as above) 20 μl antibody (0.5, 1, 1.25, 2.5 or 5 μg/ml) was added to the well and the plate was incubated for 1 hour at 20° C. The plate was washed 4 times as above then 20 μlHRP-conjugated anti-mouse IgG (1:5000 dilution in PBS/Tween 20) was added to each well. After a 1 hour incubation at room temperature the plate was washed 3 times (as above) then twice with PBS to remove traces of Tween. The presence of peroxidase was detected by adding 20 μl of freshly prepared TMB Substrate reagent (BD Opt EIA) to each well and incubating at room temperature for 20 min. Finally the plate was read at 650 nm/450 nm.

[2] = molecular target: T2, peptide 12 (12 mer from the 2nd extracellular loop of human C5aR) (human)
T2 construct: worked out from 22 12 mers offset by one over 173-205; also called peptide no; 12
T2 peptide: Biotin-SGSGPKVLCGVDYSHD
Description: as §1, §2, §3

[3] = molecular target: T3, peptide 14 (12 mer from the 2nd extracellular loop of human C5aR) (human)
T3 construct: worked out from 22 12 mers offset by one over 173-205; also called peptide no; 14
T3 peptide: Biotin-SGSGVLCGVDYSHDKR
Description: as §1, §2, §3

[4] = molecular target: T4, peptide 16 (12 mer from the 2nd extracellular loop of human C5aR) (human)
T4 construct: worked out from 22 12 mers offset by one over 173-205; also called peptide no; 16
T4 peptide: Biotin-SGSGCGVDYSHDKRRE
Description: as §1, §2, §3

[5] = molecular target: T5, peptide 20 (12 mer from the 2nd extracellular loop of human C5aR) (human)
T5 construct: worked out from 22 12 mers offset by one over 173-205; also called peptide no; 20
T5 peptide: Biotin-SGSGYSHDKRRERAVA
Description: as §1, §2, §3

[6] = molecular target: T6, peptide 22 (12 mer from the 2nd extracellular loop of human C5aR) (human)
T6 construct: worked out from 22 12 mers offset by one over 173-205; also called peptide no; 22
T6 peptide: Biotin-SGSGHDKRRERAVAIV
Description: as §1, §2, §3

[7] = molecular target: T7, peptide 17 (12 mer from the 2nd extracellular loop of human C5aR) (human)
T7 construct: worked out from 22 12 mers offset by one over 173-205; also called peptide no; 17
T7 peptide: Biotin-SGSGGVDYSHDKRRER
Description: as §1, §2, §3

[8] = molecular target: T8, peptide 19 (12 mer from the 2nd extracellular loop of human C5aR) (human)
T8 construct: worked out from 22 12 mers offset by one over 173-205; also called peptide no; 19
T8 peptide: Biotin-SGSGDYSHDKRRERAV
Description: as §1, §2, §3

[9] = molecular target: T9, peptide 9 (12 mer from the 2nd extracellular loop of human C5aR) (human)
T9 construct: worked out from 22 12 mers offset by one over 173-205; also called peptide no
T9 peptide: Biotin-SGSGYFPPKVLCGVDY
Description: as §1, §2, §3

[10] = molecular target: T10, peptide 18 (12 mer from the 2nd extracellular loop of human C5aR) (human)
T10 construct: worked out from 22 12 mers offset by one over 173-205; also called peptide no; 18
T10 peptide: Biotin-SGSGVDYSHDKRRERA
Description: as §1, §2, §3

[11] = molecular target: T11, peptide 10 (12 mer from the 2nd extracellular loop of human C5aR) (human)
T11 construct: worked out from 22 12 mers offset by one over 173-205; also called peptide no; 10
T11 peptide: Biotin-SGSGFPPKVLCGVDYS
Description: as §1, §2, §3

[12] = molecular target: T12, peptide 11 (12 mer from the 2nd extracellular loop of human C5aR) (human)
T12 construct: worked out from 22 12 mers offset by one over 173-205; also called peptide no; 11
T12 peptide: Biotin-SGSGPPKVLCGVDYSH
Description: as §1, §2, §3

[13] = molecular target: T13, peptide 8 (12 mer from the 2nd extracellular loop of human C5aR) (human)
T13 construct: worked out from 22 12 mers offset by one over 173-205; also called peptide no
T13 peptide: Biotin-SGSGEYFPPKVLCGVD
Description: as §1, §2, §3

[14] = molecular target: T14, peptide 21 (12 mer from the 2nd extracellular loop of human C5aR) (human)
T14 construct: worked out from 22 12 mers offset by one over 173-205; also called peptide no; 21
T14 peptide: Biotin-SGSGSHDKRRERAVAI
Description: as §1, §2, §3

[15] = molecular target: T15, peptide 15 (12 mer from the 2nd extracellular loop of human C5aR) (human)
T15 construct: worked out from 22 12 mers offset by one over 173-205; also called peptide no; 15
T15 peptide: Biotin-SGSGLCGVDYSHDKRR
Description: as §1, §2, §3

Measured: binding result

B1: humanized anti-C5aR antibody hAb-Q (antibody, human IgG4 S228P, kappa)
light: DVVMTQSPLSLPVTLGEPASISCRSSQSLVHSNGNTYLHWYLQKPGQSPQLLIYKVSNRFSGVPDRFSGSGSGTDFTLKISRVEAEDVGVYFCSQSTLVPLTFGQGTKLEIKRTVAAPSVFIFPPSDEQLKSGTASVVCLLNNFYPREAKVQWKVDNALQSGNSQESVTEQDSKDSTYSLSSTLTLSKADYEKHKVYACEVTHQGLSSPVTKSFNRGEC
heavy: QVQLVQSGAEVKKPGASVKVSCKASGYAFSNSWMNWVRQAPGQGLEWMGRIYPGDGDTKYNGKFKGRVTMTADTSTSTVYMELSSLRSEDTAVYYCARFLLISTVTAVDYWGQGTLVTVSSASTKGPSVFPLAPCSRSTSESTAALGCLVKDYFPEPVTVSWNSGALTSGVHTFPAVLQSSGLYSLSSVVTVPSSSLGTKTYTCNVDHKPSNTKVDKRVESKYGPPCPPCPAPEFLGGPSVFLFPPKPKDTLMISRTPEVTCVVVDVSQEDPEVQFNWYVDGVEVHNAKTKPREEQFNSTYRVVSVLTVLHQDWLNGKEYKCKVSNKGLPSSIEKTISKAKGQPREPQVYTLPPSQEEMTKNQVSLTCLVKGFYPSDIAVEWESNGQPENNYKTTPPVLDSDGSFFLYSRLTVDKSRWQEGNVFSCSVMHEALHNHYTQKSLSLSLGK
notes: IgG4 with the Ser228Pro mutation; also called antibody Q; anti-C5aR ab
no binding: all assays above

B2: mouse anti-C5aR monoclonal antibody 7F3 (antibody, V domains shown)
VH: QVQLQQSGPELVKPGASVKISCKASGYAFSNSWMNWVKQRPGKGLEWIGRIYPGDGDTKYNGKFKGKATLTADKSSSTAYMQLSSLTSEDSAVYFCARFLLISTVTAVDYWGQGTTLTVSS
VL: DVVMTQSPLSLPVSLGNQASISCRSSQSLVHSNGNTYLHWYLQKPGQSPKLLIYKVSNRFSGVPDRFSGSGSGTDFSLKISRVEAEDLGVYFCSQSTLVPLTFGAGTKLELK
notes: Mouse monoclonal from hybridoma ECACC 00110609; also called m7F3; mouse 7F3
no binding: all assays above

B3: humanized anti-C5aR antibody hAb-J (antibody, human IgG4 S228P, kappa)
light: DVVMTQSPLSLPVTLGEPASISCRSSQSLVHSNGNTYLHWYLQKPGQSPQLLIYKVSNRFSGVPDRFSGSGSGTDFTLKISRVEAEDVGVYFCSQSTLVPLTFGQGTKLEIKTVAAPSVFIFPPSDEQLKSGTASVVCLLNNFYPREAKVQWKVDNALQSGNSQESVTEQDSKDSTYSLSSTLTLSKADYEKHKVYACEVTHQGLSSPVTKSFNRGEC
heavy: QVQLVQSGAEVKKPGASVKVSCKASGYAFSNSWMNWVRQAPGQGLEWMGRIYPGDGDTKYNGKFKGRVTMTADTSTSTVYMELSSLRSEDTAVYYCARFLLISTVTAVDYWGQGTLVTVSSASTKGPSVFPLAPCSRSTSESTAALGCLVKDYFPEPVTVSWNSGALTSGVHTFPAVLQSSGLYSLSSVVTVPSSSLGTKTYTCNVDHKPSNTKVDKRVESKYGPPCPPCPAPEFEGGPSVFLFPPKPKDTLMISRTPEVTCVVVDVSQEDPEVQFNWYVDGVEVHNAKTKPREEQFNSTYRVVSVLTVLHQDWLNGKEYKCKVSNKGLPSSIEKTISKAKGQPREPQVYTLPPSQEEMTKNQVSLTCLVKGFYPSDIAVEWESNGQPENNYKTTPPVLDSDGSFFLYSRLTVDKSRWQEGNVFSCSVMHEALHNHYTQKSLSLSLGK
notes: also called antibody J
no binding: all assays above
